Here are results for six sequences from the supplement of paper PMC11246515.

A short description of the data set: total protein half-life in vivo (active degradation + dilution); higher = more stable protein.
The mark [1] stands for this setting: E. coli NCM3722 delta-clpP delta-lon delta-hslV, growth: N-lim chemostat, doubling time 6 h.
[2] abbreviates: E. coli NCM3722 delta-clpP, growth: N-lim chemostat, doubling time 6 h.
[3] abbreviates: E. coli NCM3722 delta-hslV, growth: N-lim chemostat, doubling time 6 h.
Setting [4] is: E. coli NCM3722 delta-lon, growth: N-lim chemostat, doubling time 6 h.
The mark [5] stands for this setting: E. coli NCM3722 delta-smpB, growth: N-lim chemostat, doubling time 6 h.
Setting [6] is: wild type E. coli NCM3722, growth: C-lim chemostat, doubling time 6 h.
Setting [7] is: wild type E. coli NCM3722, growth: C-lim chemostat, doubling time 12 h.
The mark [8] stands for this setting: wild type E. coli NCM3722, growth: N-lim chemostat, doubling time 6 h.
Where [9] appears, read: wild type E. coli NCM3722, growth: N-lim chemostat, doubling time 12 h.
[10] abbreviates: wild type E. coli NCM3722, growth: P-lim chemostat, doubling time 6 h.
The mark [11] stands for this setting: wild type E. coli NCM3722, growth: P-lim chemostat, doubling time 12 h.
The mark [12] stands for this setting: wild type E. coli NCM3722, growth: C-lim chemostat, doubling time 3 h.

± gives the standard deviation of the averaged measurements.

Turning to “MNKAIKVSLYISFVLIICALSKNIMMLNTSDFGRAIKPLIEDIPAFTYDLPLLYKLKGHIDSIDSYEYISSYSYILYTYVLFISIFTEYLDARVLSLFLKVIYIYSLYAIFTSYIKTERYVTLFTFFILAFLMCSSSTLSMFASFYQEQIVIIFLPFLVYSLTCKNNKSMLLLFFSLLIISTAKNQFILTPLIVYSYYIFFDRHKLIIKSVICVVCLLASIFAISYSKGVVELNKYHATYFGSYLYMKNNGYKMPSYVDDKCVGLDAWGNKFDISFGATPTEVGTECFESHKDETFSNALFLLVSKPSTIFKLPFDDGVMSQYKENYFHVYKKLHVIYGESNILTTITNIKDNIFKNIRFISLLLFFIASIFIRNNKIKASLFVVSLFGISQFYVSFFGEGYRDLSKHLFGMYFSFDLCLYITVVFLIYKIIQRNQDNSDVKH”, the “total protein half-life in vivo” value was 5.64 h under setting [1]; 6.29 ± 1.9 h under setting [2]; 5.24 ± 0.26 h under setting [3]; 4.87 ± 0.47 h under setting [4]; 4.88 ± 0.4 h under setting [5]; 6.387 ± 0.036 h under setting [6]. In addition, the “total protein half-life in vivo” value reads like this: under setting [7], 12 h; under setting [8], 5.59 ± 0.57 h; under setting [9], 9.92 ± 2.3 h; under setting [10], 5.62 ± 0.53 h; under setting [11], 10.2 ± 1.1 h.
On to “MKTERILGALYGQALGDAMGMPSELWPRSRVKAHFGWIDRFLPGPKENNAACYFNRAEFTDDTSMALCLADALLEREGKIDPDLIGRNILDWALRFDAFNKNVLGPTSKIALNAIRDGKPVAELENNGVTNGAAMRVSPLGCLLPARDVDSFIDDVALASSPTHKSDLAVAGAVVIAWAISRAIDGESWSAIVDSLPSIARHAQQKRITTFSASLAARLEIALKIVRNADGTESASEQLYQVVGAGTSTIESVPCAIALVELAQTDPNRCAVLCANLGGDTDTIGAMATAICGALHGVNAIDPALKAELDAVNQLDFNRYATALAKYRQQREAV”, for which the “total protein half-life in vivo” value came to 4.09 ± 0.27 h under setting [1]; 3.33 ± 0.15 h under setting [2]; 3.21 ± 0.037 h under setting [3]; 3.64 ± 0.55 h under setting [4]; 3.4389 ± 0.00072 h under setting [5]; 2.89 ± 0.35 h under setting [12]. Also, the “total protein half-life in vivo” value under setting [6] was determined as 5.04 ± 0.58 h; the “total protein half-life in vivo” value under setting [7] is 9.45 ± 0.66 h; the “total protein half-life in vivo” value under setting [8] worked out at 3.36 ± 0.19 h; the “total protein half-life in vivo” value under setting [9] was 4.91 ± 0.38 h; the “total protein half-life in vivo” value under setting [10] amounted to 5.45 ± 0.4 h; the “total protein half-life in vivo” value under setting [11] stood at 10.4 ± 0.37 h.
Consider “MQFSTTPTLEGQTIVEYCGVVTGEAILGANIFRDFFAGIRDIVGGRSGAYEKELRKAREIAFEELGSQARALGADAVVGIDIDYETVGQNGSMLMVSVSGTAVKTRR [P0A8C1]”, for which the “total protein half-life in vivo” value worked out at 4.49 ± 0.27 h under setting [1]; 4.01 ± 0.34 h under setting [2]; 3.9 ± 0.47 h under setting [3]; 4.39 ± 0.13 h under setting [4]; 4.26 ± 0.15 h under setting [5]; 2.918 ± 0.013 h under setting [12]. The “total protein half-life in vivo” value under setting [6] came out at 5.49 ± 0.17 h; the “total protein half-life in vivo” value under setting [7] stood at 10.2 ± 3.2 h; the “total protein half-life in vivo” value under setting [8] turned out to be 3.84 ± 0.47 h; the “total protein half-life in vivo” value under setting [9] is 6.45 ± 0.22 h; the “total protein half-life in vivo” value under setting [10] amounted to 5.53 ± 0.24 h; the “total protein half-life in vivo” value under setting [11] turned out to be 12.2 ± 0.14 h.
For “MNLMTTITGVVLAGGKARRMGGVDKGLLELNGKPLWQHVADALMTQLSHVVVNANRHQEIYQASGLKVIEDSLADYPGPLAGMLSVMQQEAGEWFLFCPCDTPYIPPDLAARLNHQRKDAPVVWVHDGERDHPTIALVNRAIEPLLLEYLQAGERRVMVFMRLAGGHAVDFSDHKDAFVNVNTPEELARWQEKR”, the “total protein half-life in vivo” value runs as follows: under setting [1], 4.29 ± 0.5 h; under setting [2], 3.95 ± 0.19 h; under setting [3], 3.728 ± 0.033 h; under setting [4], 4.1 ± 0.19 h; under setting [5], 3.59 ± 0.12 h; under setting [12], 2.95 ± 0.26 h. In addition, the “total protein half-life in vivo” value was 5.9 ± 0.46 h under setting [6]; 9.71 ± 3.2 h under setting [7]; 4.46 h under setting [8]; 6.67 ± 1.5 h under setting [9]; 5.046 ± 0.009 h under setting [10]; 10.9 ± 0.43 h under setting [11].
As for “MEQVVIVDAIRTPMGRSKGGAFRNVRAEDLSAHLMRSLLARNPALEAAALDDIYWGCVQQTLEQGFNIARNAALLAEVPHSVPAVTVNRLCGSSMQALHDAARMIMTGDAQACLVGGVEHMGHVPMSHGVDFHPGLSRNVAKAAGMMGLTAEMLARMHGISREMQDAFAARSHARAWAATQSAAFKNEIIPTGGHDADGVLKQFNYDEVIRPETTVEALATLRPAFDPVNGMVTAGTSSALSDGAAAMLVMSESRAHELGLKPRARVRSMAVVGCDPSIMGYGPVPASKLALKKAGLSASDIGVFEMNEAFAAQILPCIKDLGLIEQIDEKINLNGGAIALGHPLGCSGARISTTLLNLMERKDVQFGLATMCIGLGQGIATVFERV”, the “total protein half-life in vivo” value under setting [1] is 4.38 ± 0.27 h; the “total protein half-life in vivo” value under setting [2] was determined as 3.05 ± 0.081 h; the “total protein half-life in vivo” value under setting [3] worked out at 2.922 ± 0.023 h; the “total protein half-life in vivo” value under setting [4] is 2.52 ± 0.046 h; the “total protein half-life in vivo” value under setting [5] is 3.22 ± 0.013 h; the “total protein half-life in vivo” value under setting [12] stood at 3.36 ± 0.57 h. In addition, the “total protein half-life in vivo” value came to 5 ± 0.57 h under setting [6]; 9.67 ± 0.97 h under setting [7]; 3.18 ± 0.39 h under setting [8]; 4.39 ± 0.12 h under setting [9]; 5.97 ± 0.56 h under setting [10]; 11.5 ± 0.95 h under setting [11].
As for “MCIGVPGQVLAVGEDIHQLAQVEVCGIKRDVNIALICEGNPADLLGQWVLVHVGFAMSIIDEDEAKATLDALRQMDYDITSA [P0AAM7]”, the “total protein half-life in vivo” value under setting [1] was 4.75 ± 0.12 h, the “total protein half-life in vivo” value under setting [6] was 2.77 h and the “total protein half-life in vivo” value under setting [11] turned out to be 2.51 h.
